Substitutions are numbered along the chain they refer to.
Key:
[1] = target: GAL4 activation domain fusion (ACT) to HAB1 (UniProt Q9CAJ0); assay: yeast two-hybrid, X-gal; lowest mandipropamid concentration giving signal
6×-His-PYR1^MANDI = target: T1, 6×-His-PYR1^MANDI
T1 chain: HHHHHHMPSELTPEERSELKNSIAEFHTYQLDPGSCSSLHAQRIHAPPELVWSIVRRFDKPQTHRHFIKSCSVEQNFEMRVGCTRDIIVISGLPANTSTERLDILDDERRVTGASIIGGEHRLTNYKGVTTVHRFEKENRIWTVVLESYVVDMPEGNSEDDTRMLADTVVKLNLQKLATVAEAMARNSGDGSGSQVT

[2] = target: T2, 6×-His tagged PYR1^K59R,F108A,S122G
T2 chain: T1 chain with H64Y, I87V, L165F

GST-HAB1 = target: T3, GST-HAB1 (UniProt Q9CAJ0 23-511); assay: cell-based or functional assay
T3 sequence (looked up): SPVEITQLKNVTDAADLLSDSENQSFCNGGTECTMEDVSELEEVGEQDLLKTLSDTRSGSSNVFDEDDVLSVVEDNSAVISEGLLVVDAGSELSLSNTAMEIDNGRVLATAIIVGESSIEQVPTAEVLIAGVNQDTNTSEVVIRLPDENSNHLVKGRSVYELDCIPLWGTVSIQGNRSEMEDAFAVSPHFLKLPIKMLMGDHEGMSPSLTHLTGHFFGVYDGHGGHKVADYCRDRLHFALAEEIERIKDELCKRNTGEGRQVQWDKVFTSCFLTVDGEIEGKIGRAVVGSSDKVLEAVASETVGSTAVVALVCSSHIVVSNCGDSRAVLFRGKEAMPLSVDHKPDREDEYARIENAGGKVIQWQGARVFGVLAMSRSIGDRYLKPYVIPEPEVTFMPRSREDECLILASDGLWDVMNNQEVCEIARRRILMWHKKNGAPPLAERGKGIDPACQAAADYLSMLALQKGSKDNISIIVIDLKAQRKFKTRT

GST-ABI1 = target: T4, GST-ABI1 (UniProt P49597 1-434); assay: cell-based or functional assay
T4 sequence (looked up): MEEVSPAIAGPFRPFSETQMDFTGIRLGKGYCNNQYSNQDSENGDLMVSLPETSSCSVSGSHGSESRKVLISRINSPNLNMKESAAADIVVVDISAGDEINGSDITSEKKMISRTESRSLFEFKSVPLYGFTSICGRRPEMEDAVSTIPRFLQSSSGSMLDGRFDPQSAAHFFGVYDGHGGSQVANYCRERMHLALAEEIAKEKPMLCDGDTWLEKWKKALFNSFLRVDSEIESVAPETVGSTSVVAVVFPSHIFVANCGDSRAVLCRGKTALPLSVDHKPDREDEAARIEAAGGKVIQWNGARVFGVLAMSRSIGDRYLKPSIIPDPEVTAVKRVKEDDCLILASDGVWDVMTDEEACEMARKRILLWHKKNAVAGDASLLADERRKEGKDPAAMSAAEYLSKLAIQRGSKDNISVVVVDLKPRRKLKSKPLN

GST-ABI2 = target: T5, GST-ABI2 (UniProt O04719 1-423); assay: cell-based or functional assay
T5 sequence (looked up): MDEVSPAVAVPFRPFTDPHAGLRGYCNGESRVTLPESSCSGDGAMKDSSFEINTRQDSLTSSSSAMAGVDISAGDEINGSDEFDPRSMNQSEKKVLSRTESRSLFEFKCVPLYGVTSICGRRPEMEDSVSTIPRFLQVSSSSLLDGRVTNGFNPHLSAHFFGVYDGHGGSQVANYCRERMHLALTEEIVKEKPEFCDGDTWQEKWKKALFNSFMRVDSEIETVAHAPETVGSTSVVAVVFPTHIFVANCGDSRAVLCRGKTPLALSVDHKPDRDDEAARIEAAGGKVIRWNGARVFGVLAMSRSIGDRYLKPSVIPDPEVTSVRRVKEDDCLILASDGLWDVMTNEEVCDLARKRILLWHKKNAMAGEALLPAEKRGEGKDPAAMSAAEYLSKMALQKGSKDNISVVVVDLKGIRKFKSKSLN

Molecule: PYR1^Y58H,K59R,V81I,F108A,F159L (from UniProt P04386 1-147) (receptor)
- Threshold [1]: 0.01 µM

B1: GST-ABI2 (protein)
chain: T5 sequence (looked up)
- PP2C activity (pNPP substrate), 600 nM PP2C and 1200 nM receptor (6×-His-PYR1^MANDI): saturable inhibition of HAB1 and ABI2 PP2C activity by mandipropamid in the presence of PYR1^MANDI
- PP2C activity (pNPP substrate), 600 nM PP2C and 1200 nM receptor [2]: saturable inhibition of HAB1 and ABI2 PP2C activity by mandipropamid in the presence of PYR1^MANDI (FIG. 1A, bottom lines) and PYR1^K59R,F108A,S122G

B2: 6×-His-PYR1^MANDI (receptor)
chain: T1 chain
- IC50 of mandipropamid mediated inhibition of PP2C activity (4-methylumbelliferyl-phosphate substrate) (GST-HAB1): 32.2 nM
- IC50 of mandipropamid mediated inhibition of PP2C activity (4-methylumbelliferyl-phosphate substrate) (GST-ABI1): 26.8 nM
- IC50 of mandipropamid mediated inhibition of PP2C activity (4-methylumbelliferyl-phosphate substrate) (GST-ABI2): 75.5 nM
